# Test results from patent US6383734B1, “Method to determine inhibition of PAK3 activation of Raf-1” (Advanced Research and Technology Institute, Inc., priority 1998, dated 2002).
# Test system: Raf-1 serine 338/339
# Assay: In vitro kinase assay with Raf-1 peptide and Raf-CR3 as substrates
# Assay type: biochemical, human
# Conditions: PAK3 immunoprecipitated from rat spleen lysates, FIG. 4b
# Experimental: B. Kinase assays. Kinase samples were assessed for their ability to phosphorylate 500 μM Raf-1 peptide (33,[…]345) (SEQ ID NO:4) in the presence of 500 μMATP (containing 2 μCi [γ-^32P]-ATP at 30° C. for 10 minutes. Incubations were analyzed by P-81 phosphocellulose paper assay. Phosphorylation of serine 338/339 in Raf-CR3 was determined by similar incubations containing 1 μg of substrate at 30° C. for 30-60 minutes. Proteins were resolved by SDS-PAGE, transferred to Immobilon-P and the dried, Ponceau S-stained membranes were autoradiographed. Raf-1 kinase activity was measured by the coupled assay method using GST-Mek 1, GST-Erk1 and myelin basic protein by the method of D. Stokoe et al., Science, 264, 1463 (1994).
# D. Expression of recombinant Raf-CR3 in E. Coli. DNA sequences encoding residues 307-648 of human c-Raf-1 were amplified by polymerase chain reaction using the 5′-primer […] (SEQ ID NO:5) and the 3′-primer […] (SEQ ID NO:6). The amplified DNA was purified, digested with EcoRI and XhoI and cloned into the Stratagene pCAL-n vector. The entire Raf-CR3 coding sequence was verified by termination reaction PCR DNA sequencing. Raf-CR3 D338E339 and A338A339 substitution mutants were generated by site-directed mutagenesis using the Promega Altered SitesTM in vitro mutagenesis system. Raf-CR3-calmodulin binding protein fusions were expressed in E. coli strain BL21 (pLysS). […]
molecule,measurement,value
Immunoprecipitated PAK3: full-length PAK3 immunoprecipitated directly from rat spleen lysates with an anti-PAK3 antibody (protein) SDNGELEDKPPAPPVRMSSTIFSTGGKDPLSANHSLKPLPSVPEEKKPRNKIISIFSSTEKGSKKKEKERPEISPPSDFEHTIHVGFDAVTGEFTGMPEQWARLLQTSNITKLEQKKNPQAVLDVLKFYDSNTVKQKYLSFTPPEKDGFPSGTPALNTKGSETSAVVTEEDDDDEDAAPPVIAPRPDHTKSIYTRSVIDPIPAPVGDSNVDSGAKSSDKQKKKAKMTDEEIMEKLRTIVSIGDPKKKYTRYEKIGQGASGTVFTATDVALGQEVAIKQINLQKQPKKELIINEILVMKELKNPNIVNFLDSYLVGDELFVVMEYLAGGSLTDVVTETCMDEAQIAAVCRECLQALEFLHANQVIHRDIKSDNVLLGMEGSVKLTDFGFCAQITPEQSKRSTMVGTPYWMAPEVVTRKAYGPKVDIWSLGIMAIEMVEGEPPYLNENPLRALYLIATNGTPELQNPEKLSPIFRDFLNRCLEMDVEKRGSAKELLQHPFLKLAKPLSSLTPLILAAKEAMKSNR,phosphate incorporated into wild type Raf-CR3 versus Raf-CR3[D338E339] or Raf-CR3[A338A339] mutants,4 fold
